The values below come from article doi:10.1101/2022.01.19.476892 (bioRxiv, 2022).

Usually stoichiometry N stands for the number of molecules, sites or subunits per partner or assembly.

This assay deals with SARS-CoV S-6P protein (SARS-CoV; strain of S-6P  …, UniProt P59594, stabilised). Put plainly: cryo-EM structure.

B1: antigen-binding fragment (Fab) of VacW-209 (Fab, V domains shown)
VH: QVQLVESGGGVVQPGRSLRLSCAASGFTFSSIAMHWVRQAPGKGLEWVAVMSFDGSIKYYGDSVKGRFTISRDNSKSTLYLQMNSLRAEDTAVYYCARGVQGYYDRSGYYNLDYNYGMDVWGQGTTVTVSS
VL: QSVLTQPPSVSGAPGQRVTISCTGSSSNIGAGYDVHWYQQLPGTAPKLLIYGNSNRPSGVPDRFSGSKSGTSASLAITGLQAEDEADYYCQSYDSSLSGWVFGGGTKLTVL
For B1, the “stoichiometry N” value was determined as 3 Fabs per spike trimer.
